Experiment [1] deals with T1, rhCD39-ECD-His (R&D Systems) (human, UniProt P49961 38-478).
T1 construct: Bought protein; that entry runs on through the C-terminal transmembrane and cytoplasmic residues; also called recombinant human CD39 extracellular domain; soluble recombinant human CD39 (ENTDP1) ECD; not shown: His tag
T1 sequence: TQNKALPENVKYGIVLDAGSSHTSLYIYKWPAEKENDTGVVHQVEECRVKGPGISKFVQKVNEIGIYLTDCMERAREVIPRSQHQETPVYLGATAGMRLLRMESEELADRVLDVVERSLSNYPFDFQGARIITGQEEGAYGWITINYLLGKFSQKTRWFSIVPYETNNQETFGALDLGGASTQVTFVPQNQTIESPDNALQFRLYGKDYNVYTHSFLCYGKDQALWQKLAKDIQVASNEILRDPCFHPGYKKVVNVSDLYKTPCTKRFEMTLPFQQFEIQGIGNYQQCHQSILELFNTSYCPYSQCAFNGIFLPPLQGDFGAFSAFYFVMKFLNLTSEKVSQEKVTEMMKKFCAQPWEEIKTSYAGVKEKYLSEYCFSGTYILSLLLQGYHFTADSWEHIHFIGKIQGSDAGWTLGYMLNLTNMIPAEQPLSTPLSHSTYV
Nature of the experiment: BLI (Octet), IgG on anti-human Fc sensor, rhCD39-ECD-His 10-300 nM, 1:1 fit. The procedure: The kinetic data was globally fit with a simple 1:1 Langmuir binding model to yield on-rate (kon) and off-rate (koff) values. The equilibrium dissociation constants (KD) were calculated from the kon and koff values.
Binding kinetics were measured using the Octet Red96 system (ForteBio) at 25° C. in running buffer (1× Pall ForteBio Kinetics Buffer diluted into PBS or Tris pH 7.4). […] After a short baseline step in running buffer, the sensors were exposed to varying concentrations (10-300 nM) of rhCD39-ECD-His (R&D Systems) for the association step. Dissociation of the complex was monitored upon exposure of the sensors to running buffer once again. Data was processed using ForteBio Octet software with baseline subtraction, global fit and 1:1 binding model to obtain association and dissociation rates. KD was calculated from the ratio of kd to kₐ.
(In general: Biolayer interferometry detects binding as a change in optical thickness at a sensor tip.)

Experiment [2] has as its target T2, cynomolgus macaque (Macaca fascicularis) CD39 on cells (cynomolgus macaque (Macaca fascicularis), UniProt P49961 7-510 (human entry)).
T2 construct: CHO cells engineered to express cyno CD39, or primary cyno B cells and monocytes; also called cyno CD39; cCD39
T2 chain: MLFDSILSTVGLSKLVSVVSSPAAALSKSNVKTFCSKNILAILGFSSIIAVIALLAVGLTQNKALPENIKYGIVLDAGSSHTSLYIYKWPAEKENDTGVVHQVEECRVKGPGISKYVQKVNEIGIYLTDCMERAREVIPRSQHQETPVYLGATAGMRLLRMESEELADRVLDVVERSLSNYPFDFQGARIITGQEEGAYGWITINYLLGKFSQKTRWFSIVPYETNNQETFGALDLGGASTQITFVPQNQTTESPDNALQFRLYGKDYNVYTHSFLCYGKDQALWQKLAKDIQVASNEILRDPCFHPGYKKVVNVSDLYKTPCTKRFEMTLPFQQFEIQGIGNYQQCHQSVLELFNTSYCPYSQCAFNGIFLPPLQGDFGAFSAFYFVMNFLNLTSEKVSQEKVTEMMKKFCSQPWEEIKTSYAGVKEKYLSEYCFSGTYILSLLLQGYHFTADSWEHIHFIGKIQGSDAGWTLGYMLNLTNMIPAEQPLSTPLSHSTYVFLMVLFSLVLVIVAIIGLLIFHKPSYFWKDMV
Nature of the experiment: flow cytometry, 100 nM IgG, cCD39-CHO cells; MFI ratio to parental CHO. The protocol:
(§1) 100 nanomolar IgGs (each antibody is indicated as a unique clone number in the FIG.) were incubated at […] 30 minutes on ice in phosphate buffered saline (PBS) with parental CHO cells or CHO cells engineered to express either human or cynomolgus macaque (Macaca fascicularis) CD39 (CHO CD39 cells). Cells were then washed with ice cold PBS and incubated with a fluorescently labeled goat-anti-human IgG for 20 minutes on ice. Cells were washed and resuspended in ice cold PBS prior to analysis by flow cytrometry.

For experiment [3], the target named is T3, human CD39 on cells (human, UniProt P49961 1-510).
T3 construct: One molecule for all cells that carry human CD39; the cell is named under assay; also called hCD39; cellular CD39
T3 sequence: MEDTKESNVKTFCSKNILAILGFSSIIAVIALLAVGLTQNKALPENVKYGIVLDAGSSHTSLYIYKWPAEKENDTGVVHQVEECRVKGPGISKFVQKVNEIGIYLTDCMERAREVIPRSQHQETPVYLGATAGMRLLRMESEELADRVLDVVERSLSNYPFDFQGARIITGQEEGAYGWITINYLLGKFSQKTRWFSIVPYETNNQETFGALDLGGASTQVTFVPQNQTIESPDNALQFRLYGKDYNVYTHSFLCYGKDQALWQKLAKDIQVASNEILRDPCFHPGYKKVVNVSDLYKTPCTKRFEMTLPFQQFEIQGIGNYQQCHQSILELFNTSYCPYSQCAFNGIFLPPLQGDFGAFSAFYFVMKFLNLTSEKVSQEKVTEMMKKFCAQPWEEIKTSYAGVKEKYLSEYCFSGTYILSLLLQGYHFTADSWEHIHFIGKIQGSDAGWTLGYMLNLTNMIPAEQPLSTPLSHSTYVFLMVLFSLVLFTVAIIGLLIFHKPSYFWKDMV
Description: flow cytometry, 100 nM IgG, hCD39-CHO cells; MFI ratio to parental CHO. The protocol: as §1
(In general: Flow cytometry measures light scatter and fluorescence of single cells or particles in a stream.)

A word on the Kd: it is a measure of binding affinity in units of concentration. Broadly, the koff is the rate constant with which the complex falls apart. Higher therefore signals fast dissociation. The term kon denotes the second-order rate constant of association. High values mean faster complex formation, low ones slower complex formation.

B1: 27536 (antibody, V domains shown)
VH: QVQLVQSGAEVKKPGSSVKVSCKASGGTFSNYAISWVRQAPGQGLEWMGGIIPIFGTANYAQKFQGRVTITADESTSTAYMELSSLRSEDTAVYYCARDTLYSSGAYYGYNVWGQGTMVTVSS
VL: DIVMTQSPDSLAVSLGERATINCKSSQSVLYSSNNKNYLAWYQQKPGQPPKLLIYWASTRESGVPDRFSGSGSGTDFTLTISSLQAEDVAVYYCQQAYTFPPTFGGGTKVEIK
In experiment [1], B1 had a dissociation constant (Kd) of 114 nM, a dissociation rate constant (koff) of 0.00751 s⁻¹ and an on-rate constant (kon) of 65900 M⁻¹ s⁻¹. In addition, the “Cell Binding (FOB)” value in experiment [2] worked out at 113 FOB. In addition, in experiment [3], the “Cell Binding (FOB)” value amounted to 89 FOB.

B2: 27577 (antibody, V domains shown)
VH: QVQLVQSGAEVKKPGSSVKVSCKASGGAFSSYAIGWVRQAPGQGLEWMGGIIPTFGTANYAQKFQGRVTITADESTSTAYMELSSLRSEDTAVYYCARDGGGYQHHYFDLWGRGTLVTVSS
VL: EIVMTQSPATLSVSPGERATLSCRASQSVGSNLAWYQQKPGQAPRLLIYGASTRATGIPARFSGSGSGTEFTLTISSLQSEDFAVYYCQQLTKWPLTFGGGTKVEIKR
B2: in experiment [1], the Kd was determined as 409 nM, the koff came to 0.365 s⁻¹ and the kon is 893000 M⁻¹ s⁻¹. Moreover, the “Cell Binding (FOB)” value in experiment [2] was found to be 339 FOB. For the same molecule, the “Cell Binding (FOB)” value in experiment [3] came out at 390 FOB.

B3: 27550 (antibody, V domains shown)
VH: EVQLVESGGGLVKPGGSLRLSCAASGFTFSSYSMNWVRQAPGKGLEWVSSISSSSSYIYYADSVKGRFTISRDNAKNSLYLQMNSLRAEDTAVYYCARERRGSLALGMDVWGQGTLVTVSS
VL: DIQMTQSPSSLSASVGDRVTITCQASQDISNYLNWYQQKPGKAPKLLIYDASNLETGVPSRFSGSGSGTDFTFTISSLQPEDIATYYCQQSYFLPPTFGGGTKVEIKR
Regarding B3, in experiment [1], binding was characterised by a dissociation constant (Kd) of 143 nM, the koff is 0.0633 s⁻¹ and the kon was determined as 444000 M⁻¹ s⁻¹. Moreover, in experiment [2], the “Cell Binding (FOB)” value came to 2870 FOB. The “Cell Binding (FOB)” value in experiment [3] was 2030 FOB.

B4: 27588 (antibody, V domains shown)
VH: QVQLVQSGAEVKKPGSSVKVSCKASGGTFSNYAISWVRQAPGQGLEWMGGIIPIFGTANYAQKFQGRVTITADESTSTAYMELSSLRSEDTAVYYCARAKRGYDSYGGVYFDYWGQGTLVTVSS
VL: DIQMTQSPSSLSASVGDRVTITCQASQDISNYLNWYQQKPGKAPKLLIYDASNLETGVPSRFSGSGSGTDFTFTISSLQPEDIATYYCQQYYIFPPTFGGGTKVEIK
Take B4: in experiment [1], the Kd amounted to 54.9 nM, the koff was found to be 0.00644 s⁻¹ and the on-rate (kon) was 117000 M⁻¹ s⁻¹. In experiment [2], the “Cell Binding (FOB)” value was 14 FOB. For the same molecule, in experiment [3], the “Cell Binding (FOB)” value stood at 10 FOB.

B5: 27568 (antibody, V domains shown)
VH: QVQLVQSGAEVKKPGSSVKVPCKASGGTFSSYAISWVRQAPEQGLEWMGSIIPIFGTANYAQKFQGRVTITADESTSTAYMELSSLRSEDTAVYYCAGESGGYRDHKLDVWGQGTVVTVSS
VL: EIVLTQSPATLSLSPGERATLSCRASQSVSSYLAWYQQKPGQAPRLLIYDASNRATGIPARFSGSGSGTDFTLTISSLEPEDFAVYYCQQSVFWPITFGGGTKVEIKR
In experiment [1], B5 had an equilibrium dissociation constant (Kd) of 173 nM, an off-rate constant (koff) of 0.047 s⁻¹ and a kon of 272000 M⁻¹ s⁻¹. Besides, the “Cell Binding (FOB)” value in experiment [2] worked out at 260 FOB. Moreover, the “Cell Binding (FOB)” value in experiment [3] turned out to be 267 FOB.

B6: 27571 (antibody, V domains shown)
VH: QVQLVQSGAEVKKPGSSVKASCKASGGTFSSYAISWVRQAPGQGLEWMGSIIPIFGTANYAQKFRGRVTITADESTSTTYMELSSLRSEDTAVYYCARESGGYRDHRLDVWGQGTMVTVSS
VL: EIVMTQSPATLSVSPGERATLSCRASQSVGSNLAWYQQKPGQAPRLLIYGASTRATGIPARFSGSGSGTEFTLTISSLQSEDFAVYYCQQYLIWPLTFGGGTKVEIK
In experiment [1], B6 yielded a Kd of 16.4 nM, a dissociation rate constant (koff) of 0.0105 s⁻¹ and a kon of 639000 M⁻¹ s⁻¹. Also, in experiment [2], the “Cell Binding (FOB)” value was determined as 1610 FOB. Besides, the “Cell Binding (FOB)” value in experiment [3] worked out at 1400 FOB.

B7: 27587 (antibody, V domains shown)
VH: QVQLVQSGAEVKKPGSSVKVSCKASGGTFSSYAISWVRQAPGQGLEWMGSIIPIFGTANYAQKFQGRVTITADESTSTAYMELSSLRSEDTAVYYCARESGGYRDHKLDVWGQGTMVTVSS
VL: EIVLTQSPATLSLSPGERATLSCRASQSVSSYLAWYQQKPGQAPRLLIYDASKRATGIPARFSGSGSGTDFTLTISSLEPEDFAVYYCQQDVLWPLTFGGGTKVEIKR
With B7, in experiment [1], the dissociation constant (Kd) is 33.7 nM, the koff is 0.00711 s⁻¹ and the kon was determined as 211000 M⁻¹ s⁻¹. In addition, in experiment [2], the “Cell Binding (FOB)” value turned out to be 1400 FOB. Further, the “Cell Binding (FOB)” value in experiment [3] came to 1450 FOB.

B8: 29871 (antibody, V domains shown)
VH: QVQLVQSGAEVKKPGASVKVSCKASGYTFQSYYMHWVRQAPGQGLEWMGKINPSGGSTWYAQKFQGRVTMTRDTSTSTVYMELSSLRSEDTAVYYCARGKREGGTEYLRHWGQGTLVTVSS
VL: EIVLTQSPGTLSLSPGERATLSCRASQSVSSSYLAWYQQKPGQAPRLLIYGASSRATGIPDRFSGSGSGTDFTLTISRLEPEDFAVYYCQQYHSYITFGGGTKVEIK
In experiment [1], B8 showed a dissociation constant Kd of 244 nM, a koff of 0.0666 s⁻¹ and a kon of 273000 M⁻¹ s⁻¹. Further, the “Cell Binding (FOB)” value in experiment [2] was 3350 FOB. The “Cell Binding (FOB)” value in experiment [3] came out at 451 FOB.

B9: 31421 (antibody, V domains shown)
VH: QVQLVQSGAEVKKPGASVKVSCKASGYTFFSYYMYWVRQAPGQGLEWMGVINPLGGGTSYAQKFQGRVTMTRDTSTSTVYMELSSLRSEDTAVYYCARGKREGGTEYLRHWGQGTLVTVSS
VL: EIVLTQSPGTLSLSPGERATLSCKASESVSSSYLAWYQQKPGQAPRLLIYYASSRATGIPDRFSGSGSGTDFTLTISRLEPEDFAVYYCQQYHRRITFGGGTKVEIK
In experiment [1], B9 gave a Kd of 18.8 nM, a dissociation rate constant (koff) of 0.00526 s⁻¹ and a kon of 281000 M⁻¹ s⁻¹. In addition, the “Cell Binding (FOB)” value in experiment [2] worked out at 3050 FOB. Also, the “Cell Binding (FOB)” value in experiment [3] amounted to 1080 FOB.

B10: 31896 (antibody, V domains shown)
VH: QVQLVQSGAEVKKPGSSVKVSCKASGGTFSKLAISWVRQAPGQGLEWMGGIGFGTANYAQKFQGRVTITADESASTAYMELSSLRSEDTAVYYCARGGAKYASTHGMDVWGQGTTVTVSS
VL: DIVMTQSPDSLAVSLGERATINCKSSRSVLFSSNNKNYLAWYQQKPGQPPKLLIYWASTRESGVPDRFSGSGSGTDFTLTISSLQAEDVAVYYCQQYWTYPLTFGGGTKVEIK
In experiment [1], B10 had a Kd of 9.05 nM, a koff of 0.00815 s⁻¹ and a kon of 901000 M⁻¹ s⁻¹. Moreover, in experiment [2], the “Cell Binding (FOB)” value worked out at 4540 FOB. For the same molecule, the “Cell Binding (FOB)” value in experiment [3] was determined as 1040 FOB.

B11: 31915 (antibody, V domains shown)
VH: QVQLVQSGAEVKKPGSSVKVSCKASGGTFSSLPISWVRQAPGQGLEWMGGIGFGTANYAQKFQGRVTITADESTSTAYMELSSLRSEDTAVYYCARGGAKYASKWGMDVWGQGTTVTVSS
VL: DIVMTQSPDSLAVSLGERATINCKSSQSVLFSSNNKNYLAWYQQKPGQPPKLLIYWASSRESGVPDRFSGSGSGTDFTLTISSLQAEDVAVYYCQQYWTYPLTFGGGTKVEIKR
Turning to B11, in experiment [1], binding was put at a Kd of 0.811 nM, the koff was 0.000286 s⁻¹ and the association rate constant (kon) turned out to be 353000 M⁻¹ s⁻¹. In addition, the “Cell Binding (FOB)” value in experiment [2] turned out to be 4580 FOB. For the same molecule, in experiment [3], the “Cell Binding (FOB)” value came out at 1090 FOB.

The values are drawn from patent publication US20250026850A1 (TRISHULA THERAPEUTICS, published 2025).
